B1: S2P6 FAB fragment (Fab, V domains shown)
VH: EVQLVQSGAEVKKPGASVKVSCKASGYTFTSQYMHWVRQAPGQGLEWIGIINPSGVHTSYAQKFQGRVTLTRDTSTSTLYMELSSLRSEDTAVYYCARGSPKGAFDYWGQGTLVTVSS
VL: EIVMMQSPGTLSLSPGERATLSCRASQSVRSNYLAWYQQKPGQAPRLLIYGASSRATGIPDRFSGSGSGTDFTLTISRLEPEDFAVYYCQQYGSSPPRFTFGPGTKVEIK
B2: DH1057.1 FAB fragment (Fab, V domains shown)
VH: EVQLVESGTEVKKPGASVKVSCKTSGYIFTNYYIHWVRQAPGQGLEWMGIFNPNGGGTSYAQKFQGRITLTGNTSANTGYMVLRSLTSEDTAVYYCARDPRTSGDNDGFDMWGQGTKVTVSS
VL: VLTQSPATLSLSPGERATLSCRASQSLSSYNYLAWYQQKPGQAPRLLIYAASKRATGIPARFSGSGSGTDFTLTISSLEPEDFAVYFCQQRSNRPPAWTFGQGTKVEIK

Biological target: T1, biotinylated SARS-CoV-2 Spike protein (WA-2, 2 P) (SARS-CoV-2 WA-2 (entry: reference …, UniProt P0DTC2, stabilised, biotinylated))
T1 construct: source: bought: R&D systems
Experiment: SPR
Conditions: both partners purified

Binder	Kd [nM]
B1	0.4
B2	11.5

— PMC10689493 (Nature Communications, 2023)
